From patent US20100129369A1 (Eli Lilly, published 2010)

Tests used:
Experiment in all cases: cell-based or functional assay
[1] = biological target: T1, human c-Met (human, UniProt P08581 25-1390)
[2] = biological target: T1, human c-Met; remark: listed apart in the source
[3] = biological target: T1, human c-Met; remark: listed apart in the source
[4] = biological target: T1, human c-Met; remark: listed apart in the source

T1 sequence (P08581 25-1390): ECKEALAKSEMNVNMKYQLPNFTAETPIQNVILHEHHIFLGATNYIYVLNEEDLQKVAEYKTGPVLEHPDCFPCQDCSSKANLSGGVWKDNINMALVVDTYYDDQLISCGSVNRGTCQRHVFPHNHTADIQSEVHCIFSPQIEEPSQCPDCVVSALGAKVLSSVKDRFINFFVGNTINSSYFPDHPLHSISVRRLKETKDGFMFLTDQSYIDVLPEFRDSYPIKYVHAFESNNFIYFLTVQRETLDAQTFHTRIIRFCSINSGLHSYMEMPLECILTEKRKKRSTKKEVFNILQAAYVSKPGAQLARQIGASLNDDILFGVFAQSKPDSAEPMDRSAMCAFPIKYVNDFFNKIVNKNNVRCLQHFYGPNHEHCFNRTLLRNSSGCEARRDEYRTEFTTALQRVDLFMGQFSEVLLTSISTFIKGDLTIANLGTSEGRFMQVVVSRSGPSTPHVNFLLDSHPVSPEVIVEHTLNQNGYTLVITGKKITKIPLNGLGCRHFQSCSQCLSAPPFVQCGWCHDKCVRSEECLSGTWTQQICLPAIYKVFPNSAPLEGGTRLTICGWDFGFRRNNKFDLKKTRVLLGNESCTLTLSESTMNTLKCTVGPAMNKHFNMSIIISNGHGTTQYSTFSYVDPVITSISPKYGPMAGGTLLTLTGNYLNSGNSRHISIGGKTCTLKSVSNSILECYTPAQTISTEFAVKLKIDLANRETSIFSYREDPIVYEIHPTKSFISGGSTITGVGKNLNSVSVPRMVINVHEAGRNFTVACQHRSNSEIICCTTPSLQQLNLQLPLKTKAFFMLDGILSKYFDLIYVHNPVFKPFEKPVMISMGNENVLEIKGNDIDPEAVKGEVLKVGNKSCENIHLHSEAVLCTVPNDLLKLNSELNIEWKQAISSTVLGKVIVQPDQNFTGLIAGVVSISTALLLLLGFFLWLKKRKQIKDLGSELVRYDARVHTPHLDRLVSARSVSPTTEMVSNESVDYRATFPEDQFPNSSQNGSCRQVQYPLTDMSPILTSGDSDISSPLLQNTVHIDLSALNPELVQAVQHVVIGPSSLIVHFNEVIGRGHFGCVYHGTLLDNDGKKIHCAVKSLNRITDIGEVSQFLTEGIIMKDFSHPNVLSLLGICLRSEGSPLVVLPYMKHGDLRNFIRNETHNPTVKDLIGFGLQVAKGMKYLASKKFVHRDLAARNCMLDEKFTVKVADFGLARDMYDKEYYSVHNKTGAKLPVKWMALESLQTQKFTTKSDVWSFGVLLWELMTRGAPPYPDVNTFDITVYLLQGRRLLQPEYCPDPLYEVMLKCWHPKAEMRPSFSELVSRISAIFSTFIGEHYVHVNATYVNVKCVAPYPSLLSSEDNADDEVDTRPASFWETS

3H-Thymidine Incorporation in Caki-1 Cells in the Absence of HGF (AVG CPM), antibody dose 0.1 ng/mL [1]: 15300 CPM
3H-Thymidine Incorporation in Caki-1 Cells in the Absence of HGF (AVG CPM), antibody dose 0.4 ng/mL [1]: 14400 CPM
3H-Thymidine Incorporation in Caki-1 Cells in the Absence of HGF (AVG CPM), antibody dose 2.6 ng/mL [1]: 14100 CPM
3H-Thymidine Incorporation in Caki-1 Cells in the Absence of HGF (AVG CPM), antibody dose 15.4 ng/mL [1]: 13500 CPM
3H-Thymidine Incorporation in Caki-1 Cells in the Absence of HGF (AVG CPM), antibody dose 92.6 ng/mL [1]: 13700 CPM
3H-Thymidine Incorporation in Caki-1 Cells in the Absence of HGF (AVG CPM), antibody dose 555.6 ng/mL [1]: 14000 CPM
3H-Thymidine Incorporation in Caki-1 Cells in the Absence of HGF (AVG CPM), antibody dose 3333.3 ng/mL [1]: 15700 CPM
3H-Thymidine Incorporation in Caki-1 Cells in the Absence of HGF (AVG CPM), antibody dose 20000.0 ng/mL [1]: 15900 CPM
3H-Thymidine Incorporation in Primary Human Hepatocytes in the Absence of HGF (average), dose 0.0032 ug/mL [2]: 611
3H-Thymidine Incorporation in Primary Human Hepatocytes in the Absence of HGF (average), dose 0.016 ug/mL [2]: 715
3H-Thymidine Incorporation in Primary Human Hepatocytes in the Absence of HGF (average), dose 0.08 ug/mL [2]: 1120
3H-Thymidine Incorporation in Primary Human Hepatocytes in the Absence of HGF (average), dose 0.4 ug/mL [2]: 1230
3H-Thymidine Incorporation in Primary Human Hepatocytes in the Absence of HGF (average), dose 2 ug/mL [2]: 1430
3H-Thymidine Incorporation in Primary Human Hepatocytes in the Absence of HGF (average), dose 10 ug/mL [2]: 1700
Percent of DU145 Cells in Colonies (scatter assay), antibody 20 ug/mL [3]: 25.6%
Staurosporine-Induced Apoptosis in Caki-1 Cells, Average A450 nm, antibody dose 3 ng/mL [4]: 1.02 A450 nm
Staurosporine-Induced Apoptosis in Caki-1 Cells, Average A450 nm, antibody dose 30 ng/mL [4]: 0.91 A450 nm
Staurosporine-Induced Apoptosis in Caki-1 Cells, Average A450 nm, antibody dose 300 ng/mL [4]: 0.81 A450 nm
Staurosporine-Induced Apoptosis in Caki-1 Cells, Average A450 nm, antibody dose 3000 ng/mL [4]: 0.91 A450 nm
Staurosporine-Induced Apoptosis in Caki-1 Cells, Average A450 nm, antibody dose 30000 ng/mL [4]: 0.87 A450 nm
B1: D11-8B8 (antibody, human IgG2, kappa, V domains shown)
VH: QVQLVQSGAEVKKPGSSVKVSCKASGYTFTSRYIHWVRQAPGQGLEWMGWIYPVTGDTYYIEKFKGRVTITADKSTSTAYMELSSLRSEDTAVYYCARGYGAFFYWGQGTLVTVSS
VL: EIVLTQSPGTLSLSPGERATLSCSVSSSISSTNLHWYQQKPGQAPRLLIYGTSYLASGIPDRFSGSGSGTDFTLTISRLEPEDFAVYYCQQWSSYPYSFGQGTKLEIKR
